In doi:10.64898/2025.12.23.696137 (bioRxiv, 2025):

Biological target: the molecule itself
Assay: co-IP

B1: METTL9-FLAG wild type (mouse) (enzyme)
chain: RRMWTLRSPLSRSLYVNMTSGPGGPAAAAGGGKDTHQWYVCNREKLCESLQSVFVQSYLDQGTQIFLNNSIEKSGWLFIQLYHSFVSSVFSLFMSRTSINGLLGRGSMFVFSPDQFQRLLRINPDWKTHRLLDLGAGDGEVTKIMSPHFEEIYATELSETMIWQLQKKKYRVLGINEWQNTGFQYDVISCLNLLDRCDQPLTLLKDIRSVLEPTQGRVILALVLPFHPYVENVGGKWEKPSEILEIKGQNWEEQVNSLPEVFRKAGFVVEAFTRLPYLCEGDMYNDYYVLDDAVFVLRPV
modifications: N-linked glycans at Asn-35 and Asn-86
  stoichiometry N: 2
